Data reported in patent publication US20250163127A1 (published 2025).
Values belong to the binder of their own block, whether it stands above or below them.

What was measured:
human PD-1 = human PD-1 (human, UniProt Q15116); experiment: flow cytometry, CHO/PD-1 cells, 100 nM, anti-FLAG-PE
human CD80 = target: T1, human CD80 (human); experiment: cell-based or functional assay
T1 chain: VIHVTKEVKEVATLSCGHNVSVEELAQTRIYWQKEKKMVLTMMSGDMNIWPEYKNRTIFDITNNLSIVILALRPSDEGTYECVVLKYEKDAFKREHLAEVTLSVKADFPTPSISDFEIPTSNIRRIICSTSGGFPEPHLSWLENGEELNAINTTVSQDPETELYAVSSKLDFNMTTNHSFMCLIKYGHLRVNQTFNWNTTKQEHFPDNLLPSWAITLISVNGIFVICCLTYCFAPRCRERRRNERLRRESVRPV

PD-1 = PD-1 (human, UniProt Q15116); experiment: cell-based or functional assay
CD28 = CD28 (human, UniProt P10747); experiment: cell-based or functional assay
TIGIT = target: T2, TIGIT (human, UniProt Q495A1); experiment: cell-based or functional assay
T2 sequence: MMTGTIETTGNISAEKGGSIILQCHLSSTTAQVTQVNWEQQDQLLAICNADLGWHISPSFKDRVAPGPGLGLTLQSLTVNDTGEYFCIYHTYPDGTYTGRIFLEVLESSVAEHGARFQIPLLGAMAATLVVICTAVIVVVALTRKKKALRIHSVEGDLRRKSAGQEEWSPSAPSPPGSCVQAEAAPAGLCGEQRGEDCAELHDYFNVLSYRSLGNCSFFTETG

B2: PD-L1 303-CTLA-4 3037-Fc (SEQ ID NO 3523) (Fc fusion)
chain: FTVTVPKDLYVVEYGSNMTIECKFPVEKQLDLAALIVYWEMEGKDIIQFVHGEEDQKAQHSSYRQRARLLKDQLSLGNAALQITDVKLQDAGVYRCMISYGGGADYKRITVKVNAGSGGSGGGGSGGGGSKAMHVAQPAVVLASSRGIASFVCEYASPWKATEVRVTVLRQADSQVTEVCAATYMMGSELTFPDDSICTGTSSGNQVNLTIRGLRAMDTGLYICKVEQMYPPPYLLGIGNGTQIYVIDPEPCPDSDGGGGSGSGGGGSEPKSSDKTHTCPPCPAPEAEGAPSVFLFPPKPKDTLMISRTPEVTCVVVDVSHEDPEVKFNWYVDGVEVHNAKTKPREEQYNSTYRVVSVLTVLHQDWLNGKEYKCKVSNKALPAPIEKTISKAKGQPREPQVYTLPPSRDELTKNQVSLTCLVKGFYPSDIAVEWESNGQPENNYKTTPPVLDSDGSFFLYSKLTVDKSRWQQGNVFSCSVMHEALHNHYTQKSLSLSPG
% CD25 Hi FoxP3 + (human CD80): 44.2 % at 100 nM
% CD25 Hi FoxP3 + (PD-1): 44.2 % at 100 nM

B4: CD155 665-ICOSL 2264-ICOSL 2264-CD155 665 (other)
chain: WPPPGTGDVVVQAPTQVSGFLGDSVTLPCYLQVPNMEVTHVSQLTWARHGESGSMAVFHQTQGPWYAESKRLEFVAARLGAELRNASLRVFGLRAEDEGNYTCQFVTFPQRSRSVDIWLRVLGGGGSGGGGTGGGGSDTQEKEVRAMVGSDVELSCACPEGSRFDLNDVYVYWQTSESKTVVTYHIPQHSSLEYVDSRYRNRALMSPAGMLRGDFSLRLFNVTPQDEQKFHCLVLSRSLGFQEVLSVEVTLHVAANFSVGGGGSGGGGSGGGGSDTQEKEVRAMVGSDVELSCACPEGSRFDLNDVYVYWQTSESKTVVTYHIPQHSSLEYVDSRYRNRALMSPAGMLRGDFSLRLFNVTPQDEQKFHCLVLSRSLGFQEVLSVEVTLHVAANFSVGSGGSGGGGSGGGGSWPPPGTGDVVVQAPTQVSGFLGDSVTLPCYLQVPNMEVTHVSQLTWARHGESGSMAVFHQTQGPWYAESKRLEFVAARLGAELRNASLRVFGLRAEDEGNYTCQFVTFPQRSRSVDIWLRVLGSGGGGSDYKDDDDKHHHHHH
100 nM IFN-gamma (pg/mL), SEB assay (CD28): 2120 pg/mL
100 nM IFN-gamma (pg/mL), SEB assay (TIGIT): 2120 pg/mL

Next, values leading:

MFI (human PD-1): 19900
B1: PD-L2 1417-IL16 (other)
chain: LFTVTVPKELYIIEQGSNVTLECNFDTGSHVNLGAITASLQKVENDASPHRERATLLEEQLPLGRALFHIPQVQVRDEGQYRCIIIYGDAWDYKYLTLKVKAGSGGSGGGGSGGGGSSAASASAASDVSVESTAEATVCTVTLEKMSAGLGFSLEGGKGSLHGDKPLTINRIFKGAASEQSETVQPGDEILQLGGTAMQGLTRFEAWNIIKALPDGPVTIVIRRKSLQSKETTAAGDSDYKDDDDKHHHHHH

% CD25 Hi FoxP3 + (human CD80): 19.1 % at 100 nM
% CD25 Hi FoxP3 + (PD-1): 19.1 % at 100 nM
B3: PD-L1 303-CTLA-4 3495-Fc (Fc fusion)
chain: FTVTVPKDLYVVEYGSNMTIECKFPVEKQLDLAALIVYWEMEGKDIIQFVHGEEDQKAQHSSYRQRARLLKDQLSLGNAALQITDVKLQDAGVYRCMISYGGGADYKRITVKVNAGSGGSGGGGSGGGGSKAMHVAQPAVVLASSRGIASFVCEYASPGKATEVRVTVLRQADSQVTEVCAATYMMGNELTFLDDSICTGTSSGNQVNLTIQGLRAMDTGLYICKVELMYPPPYYLGIGNGTQIYVIDPEPSPDSDQGGGGSGSGGGGSEPKSSDKTHTCPPCPAPEAEGAPSVFLFPPKPKDTLMISRTPEVTCVVVDVSHEDPEVKFNWYVDGVEVHNAKTKPREEQYNSTYRVVSVLTVLHQDWLNGKEYKCKVSNKALPAPIEKTISKAKGQPREPQVYTLPPSRDELTKNQVSLTCLVKGFYPSDIAVEWESNGQPENNYKTTPPVLDSDGSFFLYSKLTVDKSRWQQGNVFSCSVMHEALHNHYTQKSLSLSPG
